Data reported in article PMC3331940.

Target: Cdk4/cyclin D1 complex (UniProt P11802)

| Substance | maximal extent of Cdk4 inhibition at saturating concentrations [%] |
| --- | --- |
| p27-KID^(Y74E, Y89F) (domain or fragment) | 98 |
| p27-KID^(pY74, pY88, Y89F) (domain or fragment) | 80 |
| p27-KID^(pY88, Y89F) (domain or fragment) | 95 |
